Reference: patent US6696409

Tests used:
[1] = target: Y1 receptors in anaesthetised rats (rat); assay: cell-based or functional assay
[2] = target: Y2-like receptors in anaesthetised rats (rat); assay: cell-based or functional assay

Increase in BP (rel to NPY), anaesthetised rats (relative to NPY) [1]: 0
EC50 of the change in pulse interval (PI %), vagal stimulation in anaesthetised rats [2]: 1.26 nmol
Substance: Ac[L28,I30]NPY24-36 (from UniProt P01303 52-64) (peptide)
